Assay results taken from paper PMC11117632.

How the values were obtained:
[1] = system: inactivated SARS-CoV-2 virus (whole virion) (SARS-CoV-2 strain CN2); test: ELONA; details: binding buffer 50 mM HEPES pH 7.4, 100 mM NaCl, 5 mM KCl, 2 mM MgCl2, 1 mM CaCl2; room temperature in SELEX, ELONA temperature not stated
[2] = system: inactivated SARS-CoV-2 virus (whole virion) (SARS-CoV-2 strain CN2); test: ELONA competition; details: binding buffer 50 mM HEPES pH 7.4, 100 mM NaCl, 5 mM KCl, 2 mM MgCl2, 1 mM CaCl2; room temperature in SELEX, ELONA temperature not stated
[3] = system: inactivated SARS-CoV-2 virus (whole virion) (SARS-CoV-2 strain CN2); test: EIS; details: 5' SH, 3 x iSp18 spacer; binding buffer 50 mM HEPES pH 7.4, 100 mM NaCl, 5 mM KCl, 2 mM MgCl2, 1 mM CaCl2; room temperature in SELEX, ELONA temperature not stated

GCAATGGTACGGTACTTCCATGGCTGGTGCTTGAGGTGTGTGTGGGGGTAGGGCCAAAAGTGCACGCTACTTTGCTAA [aptamer 6.9]
Kd [1]: 9.6 nM
binding signal (% signal decrease) [2]: 56

GCAATGGTACGGTACTTCCATGGCTGGTGCTTGAGGTGTGTGTGGGGGTAGGGCCAAAAGTGCACGCTACTTTGCTAA [thiolated aptamer 6.9]
binding signal (% impedance decrease) [3]: 40

GCAATGGTACGGTACTTCCCGGGGCGGGCTGTCATGCCCATCCTACCGTGACCGCAAAAGTGCACGCTACTTTGCTAA [aptamer 6.8]
Kd [1]: 21 nM
